# Source: patent publication US20080160035A1 (Regeneron, published 2008)
# Numbering of substitutions follows the chain as printed.
# B1: VAB 5C5-11 (antibody, V domains shown)
# VH: QVQLVQSGAEVQKPGASVKVSCKASGYTFTGQYIHWVRQAPGQGLEWMGWINPNSGGTNFAQKFQDRVTMTRDTSIGTVYMELRRLTSDDTAVFYCVREKRGFDIWGQGTMVTVSS
# VL: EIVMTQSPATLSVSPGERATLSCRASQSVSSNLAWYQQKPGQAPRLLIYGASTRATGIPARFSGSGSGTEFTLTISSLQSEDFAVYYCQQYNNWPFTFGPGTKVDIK
# notes: Apparently tested with mouse constant region (anti-mouse IgG capture/detection)
# B2: VAB 1H1-2 (antibody, V domains shown)
# VH: QVQLVQSGAEVKKPGASVKVSCKASGYTFTSYGISWVRQAPGQGLEWMGWISVYNGNTNYAQKLQGRVTMTTDTSTSTAYMDLRSLRSDDAAVYYCARGSGYDFDYWGQGTLVTVSS
# VL: AIQMTQSPSSLSASVGDRVTITCRASQGIRNALGWYQQKPGKAPKLLIYAASSLQSGVPSRFSGSGSGTDFTLTISSLQSEDFATYYCLQDYNYPYTFGQGTKLEIK
# notes: as for B1
# B3: VAB 6C10-14 (antibody, V domains shown)
# VH: B2 VH with S31N, I34L, S35T, Q43R, K63T, Q65K, D82E, R84K, A91T
# VL: B2 VL with T20A, G28D, A32D, Y49H, A50T, S77N, S80P, Y92N, N93S, K107N
# notes: as for B1
# B4: VAB 3B4-10 (antibody, V domains shown)
# VH: B2 VH with Q3H, S31N, S35G, V53I, K63R, Y80F, R87K, A91T, D103N, Y106H
# VL: B2 VL with A32D, K39I, S77N, S80P, T85V, Y87F, Y92N, N93T, K103N, I106S
# notes: as for B1
# B5: VAB 11G8-1 (antibody, V domains shown)
# VH: B2 VH with S31N, N57H, D82E, A91T, Y106S
# VL: B2 VL with P8S, G28A, L46V, V58I, S80P, N93D
# notes: as for B1
# B6: VAB 8G10-1 (antibody, V domains shown)
# VH: B2 VH with A9P, S31N, T58I, A91T
# VL: B2 VL with G28D, G66A, S80P, T85A
# notes: as for B1
# B7: VAB 4D5-3 (antibody, V domains shown)
# VH: B2 VH with A9P, S31N, N57K, L64F, A91T
# VL: B2 VL with Y49F, A51S, S76R, S80P, T85A
# notes: as for B1
# B8: VX 4E7-9 (antibody, V domains shown)
# VH: B2 VH with S31N, N57K, S77T, D82E, L83M, A91T, F104L, T114S
# VL: B2 VL with I75F, S80P, Y92F
# notes: 387/389; Apparently tested with mouse constant region (anti-mouse IgG capture/detection)
# B9: VAB 16G1-1 (antibody, V domains shown)
# VH: EVKLAESGGGLVQPGGSLRLSCAASGFTFSSHWMNWVRQAPGKGLEWVANIKQDGSDKYYVDSVKGRFTISRDNAKNSLYLQLNSLIAEDTAVYYCARDRGVRPPRGAFDIWGQGTMVTVSS
# VL: DIQMTQSPSSVSASVGDRVTITCRASQGISSWLAWYQQKPGKAPKLLIYAASSFQSGVPSRFSGSGSGTDFTLTISSLQPEDFATYFCQQANSFPLTFGGGTTVEIK
# notes: 403/405; 407/409 without saying which was assayed; Apparently tested with mouse constant region (anti-mouse IgG capture/detection)
# Molecular target: T1, hIL-4R on cells (STAT6-transfected HEK293, TF1, TF1/A12) (human, UniProt P24394 26-825)
# T1 sequence (looked up): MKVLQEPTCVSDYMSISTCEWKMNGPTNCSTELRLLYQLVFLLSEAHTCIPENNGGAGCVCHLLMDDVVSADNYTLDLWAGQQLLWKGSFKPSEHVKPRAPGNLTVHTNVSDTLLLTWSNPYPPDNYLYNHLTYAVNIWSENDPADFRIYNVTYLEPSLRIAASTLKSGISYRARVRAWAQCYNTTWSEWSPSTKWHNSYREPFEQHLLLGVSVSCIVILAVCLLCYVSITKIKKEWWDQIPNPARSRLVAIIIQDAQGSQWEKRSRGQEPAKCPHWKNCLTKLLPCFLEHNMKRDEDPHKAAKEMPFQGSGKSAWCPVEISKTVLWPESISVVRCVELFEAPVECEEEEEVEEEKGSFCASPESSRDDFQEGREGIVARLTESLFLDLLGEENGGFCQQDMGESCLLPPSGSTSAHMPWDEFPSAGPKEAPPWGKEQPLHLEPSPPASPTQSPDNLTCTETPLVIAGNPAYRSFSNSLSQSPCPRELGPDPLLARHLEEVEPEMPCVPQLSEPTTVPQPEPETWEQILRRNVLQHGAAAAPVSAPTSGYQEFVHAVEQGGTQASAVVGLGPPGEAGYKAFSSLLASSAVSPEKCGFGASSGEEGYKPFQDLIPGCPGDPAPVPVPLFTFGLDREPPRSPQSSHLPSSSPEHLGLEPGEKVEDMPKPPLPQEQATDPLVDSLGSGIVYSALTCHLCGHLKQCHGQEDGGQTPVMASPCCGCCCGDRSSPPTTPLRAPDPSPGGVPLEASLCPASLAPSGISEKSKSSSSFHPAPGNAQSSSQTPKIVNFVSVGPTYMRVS
# Test: cell-based or functional assay
Binder,"STAT6 Bioassay IC50 (HEK293 STAT6 luciferase, 10 pM hIL-4) [nM]","TF1/A12 Bioassay IC50 (proliferation, 20 pM hIL-4) [nM]","TF1 Bioassay IC50 (proliferation, 50 pM hIL-4) [nM]"
B1,0.14,0.37,0.21
B2,> 10,> 50,–
B3,> 10,23,–
B4,> 10,> 50,–
B5,> 10,> 50,–
B6,> 10,> 50,–
B7,3.8,21,–
B8,7.9,10,–
B9,0.14,0.7,0.12

# Molecular target: T1, hIL-4R on cells (STAT6-transfected …)
# Test: cell-based or functional assay
# Remark: another data set of the same source
Binder,"STAT6 Bioassay IC50 (HEK293 STAT6 luciferase, 40 pM hIL-13)","TF1 Bioassay IC50 (proliferation, 150 pM hIL-13) [nM]"
B1,60 pM,0.82
B2,> 10 nM,–
B3,> 10 nM,–
B4,8.3 nM,–
B5,8.8 nM,–
B6,> 10 nM,–
B7,3.3 nM,–
B8,6.3 nM,–
B9,90 pM,0.44

# Molecular target: T2, mouse IL-4R (mouse, UniProt P16382 26-233, limits assumed)
# T2 sequence (looked up): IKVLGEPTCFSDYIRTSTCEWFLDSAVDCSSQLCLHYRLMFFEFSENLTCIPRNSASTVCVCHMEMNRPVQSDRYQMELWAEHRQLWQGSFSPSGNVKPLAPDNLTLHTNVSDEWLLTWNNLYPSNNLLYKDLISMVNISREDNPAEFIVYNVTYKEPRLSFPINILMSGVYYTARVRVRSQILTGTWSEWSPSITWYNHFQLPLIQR
# Test: binding affinity test of Example 2 (method not restated)
row,Binder,binding result
1,B1,no binding
2,B2,no binding
3,B3,no binding
4,B4,no binding
5,B5,no binding
6,B6,no binding
7,B7,no binding
8,B8,no binding
9,B9,no binding

# Molecular target: T3, monomeric hIL-4R (R&D Systems) (human, UniProt P24394 26-231)
# T3 construct: Bought (R&D Systems); also called hIL-4R monomer
# T3 sequence: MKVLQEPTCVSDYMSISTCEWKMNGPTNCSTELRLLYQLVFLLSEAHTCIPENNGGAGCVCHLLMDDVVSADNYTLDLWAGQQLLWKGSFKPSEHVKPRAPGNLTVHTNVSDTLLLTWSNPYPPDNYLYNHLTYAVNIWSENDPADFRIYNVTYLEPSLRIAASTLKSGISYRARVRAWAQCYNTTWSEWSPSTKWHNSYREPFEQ
# Test: SPR (BIAcore 2000); antibody captured, monomeric hIL-4R injected
# Procedure: (§1) Binding affinity (KD) of selected antibodies with respect to hIL-4R was determined using a real-time biosensor surface plasmon resonance assay (BIAcore™ 2000). Briefly, antibody was captured on a goat anti-mouse (GAM) IgG polyclonal antibody surface created through direct chemical coupling of the GAM IgG to a BIAcore™ chip to form a captured antibody surface. […] Binding of antigen to antibody and dissociation of the bound complex, were monitored in real time. Equilibrium dissociation constants (KD) and dissociation rate constants were ascertained by performing kinetic analysis using BIA evaluation software. BIA evaluation software was also used to calculate the half-life of antigen/antibody complex dissociation (T_{1/2}). […] The binding affinity of anti-hIL-4R antibodies to either mouse or monkey (Macaca fascicularis) IL-4R was also tested.
Binder,Kd [nM],T1/2 monomeric [h]
B1,0.13,0.783
B2,34.9,0.133
B3,1.77,1.22
B4,0.59,1.7
B5,1.63,0.417
B6,7.71,0.467
B7,2.02,0.583
B8,1.43,0.8
B9,0.93,0.25

# Molecular target: T4, dimeric hIL-4R-hFc (human, UniProt P24394 26-232)
# T4 construct: also called hIL-4R-Fc; not shown: human Fc (hFc)
# T4 sequence: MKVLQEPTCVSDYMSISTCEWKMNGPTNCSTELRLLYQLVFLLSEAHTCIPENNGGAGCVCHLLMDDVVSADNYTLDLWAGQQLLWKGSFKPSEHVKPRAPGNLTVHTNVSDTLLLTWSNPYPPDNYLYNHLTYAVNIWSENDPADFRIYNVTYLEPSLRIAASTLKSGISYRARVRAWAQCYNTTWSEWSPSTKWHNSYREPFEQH
# Test: SPR (BIAcore 2000); antibody captured, dimeric hIL-4R-hFc injected
# Procedure: as §1
Binder,Kd [nM],T1/2 dimeric [h]
B1,0.027,7.7
B2,0.139,8.2
B3,0.286,6.2
B4,0.053,20.4
B5,0.108,8.7
B6,5.51,4.1
B7,0.032,20.4
B8,0.111,19.1
B9,0.038,7.3

# Molecular target: T4, dimeric hIL-4R-hFc
# Test: ELISA; antibody titrated against 25 pM hIL-4R-Fc, free receptor caught on hIL-4 plate
# Procedure: Concentration of free hIL-4R-Fc (no antibody bound) was determined using a hIL-4R-specific sandwich ELISA. […] After a one-hour incubation at room temperature, the detection plate was washed and plate-bound hIL-4R-hFc was detected using HRP conjugated goat anti-hFc polyclonal antibodies and developed using colorimetric substrates such as BD OptEIA™ (BD Biosciences Pharmingen, San Diego, Calif.). After the reaction was stopped with 1 M phosphoric or sulfuric acid, absorbances at 450 nm were recorded and the data were analyzed using GraphPad™ Prism software.
row,Binder,IC50 [nM]
1,B1,0.024
2,B2,0.146
3,B3,0.441
4,B4,0.322
5,B5,0.24
6,B6,0.244
7,B7,0.24
8,B8,0.118
9,B9,0.018

# Molecular target: T4, dimeric hIL-4R-hFc
# Test: SPR; reduction of hIL-4 (50 nM) binding to captured hIL-4R-hFc after antibody; competitor hIL-4
# From the text: Purified hIL-4R-hFc molecules were captured by goat anti-human IgG polyclonal antibody immobilized on CM-5 to a density of 260 RU, to prepare a receptor-coated surface.
row,Binder,% Inhibition (BIAcore) [%]
1,B1,96
2,B2,78
3,B3,79
4,B4,72
5,B5,77
6,B6,74
7,B7,82
8,B8,79
9,B9,92
